This is an account of results in the supplement of paper PMC9112550, “Optimization of the antimicrobial peptide Bac7 by deep mutational scanning” (BMC Biology, 2022).
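Also: peptides expressed intracellularly from a pBAD plasmid library in pooled LB shake-flask culture, induced with 0.3% L-arabinose, DNA abundance read by NGS, three biological replicates, DESeq2 with apeglm shrinkage.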

The data set deals with Escherichia coli TOP10. The experiment in a line: shrunken log2 fold change of peptide-encoding DNA abundance (4.5 h post-induction vs induction); higher = less antimicrobial activity (less host growth inhibition). The following applies: time post-induction: 4.5 h; library: site-saturation at positions 5, 18, 19, 20.
Turning to RRIRMRPPRLPRPRPRPRYYPRP, the “shrunken log2 fold change” value is -0.261. Regarding RRIRQRPPRLPRPRPRPKDQPRP, the “shrunken log2 fold change” value worked out at 0.0983.

As to RRIRFRPPRLPRPRPRPAFYPRP, the “shrunken log2 fold change” value was -0.249. For RRIRKRPPRLPRPRPRPPLQPRP, the “shrunken log2 fold change” value is 0.558. With RRIRHRPPRLPRPRPRPCNKPRP, the “shrunken log2 fold change” value was -0.395. For RRIRIRPPRLPRPRPRPQINPRP, the “shrunken log2 fold change” value is -0.776. The same measure for RRIRHRPPRLPRPRPRPAKLPRP: -0.352; for RRIRERPPRLPRPRPRPCDRPRP: -0.187; for RRIRTRPPRLPRPRPRPEDHPRP: -0.0554. Turning to RRIRKRPPRLPRPRPRPIFAPRP, the “shrunken log2 fold change” value turned out to be 0.454. As for RRIRCRPPRLPRPRPRPMYTPRP, the “shrunken log2 fold change” value was -0.551.

Take RRIRVRPPRLPRPRPRPRREPRP: the “shrunken log2 fold change” value is 0.495. In the case of RRIRIRPPRLPRPRPRPTKSPRP it was -0.141; in that of RRIRARPPRLPRPRPRPQWGPRP, 0.315; in that of RRIRQRPPRLPRPRPRPGSGPRP, 0.135. The same measure for RRIRWRPPRLPRPRPRPMERPRP: -0.0173; for RRIRDRPPRLPRPRPRPYYNPRP: -1.01; for RRIRKRPPRLPRPRPRPDEVPRP: 1.1.

Turning to RRIRERPPRLPRPRPRPTKKPRP, the “shrunken log2 fold change” value came to 0.0853. The same measure for RRIRDRPPRLPRPRPRPTTEPRP: 0.578; for RRIRVRPPRLPRPRPRPQQKPRP: -0.027; for RRIRTRPPRLPRPRPRPFCEPRP: -0.0463. RRIRDRPPRLPRPRPRPCSGPRP: the “shrunken log2 fold change” value is -0.0282. As for RRIRNRPPRLPRPRPRPLVRPRP, the “shrunken log2 fold change” value is -0.372. In the case of RRIRRRPPRLPRPRPRPDAHPRP it was -0.00208.

Consider RRIRQRPPRLPRPRPRPWGSPRP, for which the “shrunken log2 fold change” value was -0.0209.

Take RRIRKRPPRLPRPRPRPIFDPRP: the “shrunken log2 fold change” value came out at 0.205.

For the sequence RRIRQRPPRLPRPRPRPKCWPRP, the “shrunken log2 fold change” value was 0.621. As to RRIRHRPPRLPRPRPRPMSEPRP, the “shrunken log2 fold change” value came to 0.0594. In the case of RRIRPRPPRLPRPRPRPRHSPRP it was -0.0642. In the case of RRIRCRPPRLPRPRPRPRANPRP it was 0.255; in that of RRIRYRPPRLPRPRPRPQPMPRP, -0.159; in that of RRIRCRPPRLPRPRPRPLLLPRP, -0.265. For RRIRVRPPRLPRPRPRPNLLPRP, the “shrunken log2 fold change” value was -0.22. For the sequence RRIRNRPPRLPRPRPRPTLIPRP, the “shrunken log2 fold change” value is -0.461. For RRIRGRPPRLPRPRPRPMVEPRP, the “shrunken log2 fold change” value was 0.446.

For the sequence RRIRVRPPRLPRPRPRPNTVPRP, the “shrunken log2 fold change” value is -0.0689. As for RRIRVRPPRLPRPRPRPSFKPRP, the “shrunken log2 fold change” value was -0.202. As to RRIRCRPPRLPRPRPRPAMWPRP, the “shrunken log2 fold change” value turned out to be 0.295.

With RRIRMRPPRLPRPRPRPSRCPRP, the “shrunken log2 fold change” value was found to be 0.274. As to RRIRNRPPRLPRPRPRPKWVPRP, the “shrunken log2 fold change” value was found to be 0.132. On to RRIRPRPPRLPRPRPRPDQVPRP, for which the “shrunken log2 fold change” value worked out at 0.0258. For the sequence RRIRKRPPRLPRPRPRPRPAPRP, the “shrunken log2 fold change” value was 0.758. As for RRIRMRPPRLPRPRPRPELFPRP, the “shrunken log2 fold change” value came to 3.28. In the case of RRIRPRPPRLPRPRPRPENFPRP, the “shrunken log2 fold change” value was found to be 0.0102. Consider RRIRSRPPRLPRPRPRPLMRPRP, for which the “shrunken log2 fold change” value was determined as 0.948. On to RRIRARPPRLPRPRPRPKHNPRP, for which the “shrunken log2 fold change” value was determined as 0.114. In the case of RRIRPRPPRLPRPRPRPQNSPRP, the “shrunken log2 fold change” value is -0.469. Take RRIRDRPPRLPRPRPRPAQVPRP: the “shrunken log2 fold change” value was -0.286.

For the sequence RRIRWRPPRLPRPRPRPVPMPRP, the “shrunken log2 fold change” value came out at 0.221. Turning to RRIRMRPPRLPRPRPRPTDHPRP, the “shrunken log2 fold change” value stood at 0.309.

On to RRIRPRPPRLPRPRPRPPVNPRP, for which the “shrunken log2 fold change” value is 0.15. Turning to RRIRTRPPRLPRPRPRPYKYPRP, the “shrunken log2 fold change” value was -1.14.

RRIRKRPPRLPRPRPRPVQMPRP: the “shrunken log2 fold change” value stood at 0.241. On to RRIRFRPPRLPRPRPRPRSWPRP, for which the “shrunken log2 fold change” value is 0.135. Take RRIRSRPPRLPRPRPRPMNLPRP: the “shrunken log2 fold change” value is 0.048. The same measure for RRIRPRPPRLPRPRPRPWIQPRP: 0.0178; for RRIRFRPPRLPRPRPRPHANPRP: -0.16. As to RRIRDRPPRLPRPRPRPWLGPRP, the “shrunken log2 fold change” value amounted to 0.109.

Turning to RRIRDRPPRLPRPRPRPGMIPRP, the “shrunken log2 fold change” value came to 0.133. Turning to RRIRPRPPRLPRPRPRPNWNPRP, the “shrunken log2 fold change” value was -0.184. RRIRIRPPRLPRPRPRPMFQPRP: the “shrunken log2 fold change” value turned out to be 0.0263. For the sequence RRIRTRPPRLPRPRPRPDTIPRP, the “shrunken log2 fold change” value is -0.0386. As to RRIRARPPRLPRPRPRPKPSPRP, the “shrunken log2 fold change” value amounted to 0.524. As for RRIRARPPRLPRPRPRPCVNPRP, the “shrunken log2 fold change” value is 0.194. The same measure for RRIRWRPPRLPRPRPRPSMPPRP: -0.423; for RRIRARPPRLPRPRPRPNRCPRP: 0.0646; for RRIRKRPPRLPRPRPRPPMEPRP: 0.135. On to RRIRNRPPRLPRPRPRPVCTPRP, for which the “shrunken log2 fold change” value was -0.157. In the case of RRIRNRPPRLPRPRPRPYQNPRP it was 0.0156. For RRIRWRPPRLPRPRPRPGGHPRP, the “shrunken log2 fold change” value is 0.494. In the case of RRIRYRPPRLPRPRPRPNDPPRP, the “shrunken log2 fold change” value was -0.549.

As for RRIRIRPPRLPRPRPRPRYEPRP, the “shrunken log2 fold change” value is -0.011.

Take RRIRHRPPRLPRPRPRPPFAPRP: the “shrunken log2 fold change” value was 0.564. The same measure for RRIRCRPPRLPRPRPRPGNQPRP: -0.644; for RRIRDRPPRLPRPRPRPAVDPRP: -0.0491. The same measure for RRIRDRPPRLPRPRPRPMLVPRP: 0.116; for RRIRIRPPRLPRPRPRPVWFPRP: -0.125.

For RRIRYRPPRLPRPRPRPDLRPRP, the “shrunken log2 fold change” value was -1.03.

Consider RRIRFRPPRLPRPRPRPGNCPRP, for which the “shrunken log2 fold change” value stood at 0.0888. Turning to RRIRNRPPRLPRPRPRPQCSPRP, the “shrunken log2 fold change” value is -0.148. As to RRIRERPPRLPRPRPRPDKCPRP, the “shrunken log2 fold change” value is -0.121.

Take RRIRERPPRLPRPRPRPPAAPRP: the “shrunken log2 fold change” value was determined as 0.252. In the case of RRIRGRPPRLPRPRPRPDAWPRP, the “shrunken log2 fold change” value came out at 1.17. Turning to RRIRDRPPRLPRPRPRPRHHPRP, the “shrunken log2 fold change” value was -0.043.

With RRIRRRPPRLPRPRPRPWERPRP, the “shrunken log2 fold change” value was -0.0262. With RRIRKRPPRLPRPRPRPNVTPRP, the “shrunken log2 fold change” value was found to be 0.138.

RRIRCRPPRLPRPRPRPNSQPRP: the “shrunken log2 fold change” value is -0.47. As for RRIRKRPPRLPRPRPRPYRDPRP, the “shrunken log2 fold change” value was -0.0176. For RRIRNRPPRLPRPRPRPHLMPRP, the “shrunken log2 fold change” value was -0.584.

For the sequence RRIRCRPPRLPRPRPRPINPPRP, the “shrunken log2 fold change” value was -0.00918. As to RRIRRRPPRLPRPRPRPKRYPRP, the “shrunken log2 fold change” value turned out to be 0.00167.

Turning to RRIRGRPPRLPRPRPRPCDIPRP, the “shrunken log2 fold change” value was -0.00533.

In the case of RRIRHRPPRLPRPRPRPKFAPRP, the “shrunken log2 fold change” value was found to be 0.00298. On to RRIRIRPPRLPRPRPRPIMAPRP, for which the “shrunken log2 fold change” value was -0.286. For the sequence RRIRRRPPRLPRPRPRPWDRPRP, the “shrunken log2 fold change” value was 0.26. In the case of RRIRQRPPRLPRPRPRPEDRPRP it was -0.0214; in that of RRIRKRPPRLPRPRPRPRKPPRP, 1.65.

As to RRIRDRPPRLPRPRPRPDGAPRP, the “shrunken log2 fold change” value came to 0.657. Take RRIRDRPPRLPRPRPRPNKCPRP: the “shrunken log2 fold change” value is -0.104. In the case of RRIRDRPPRLPRPRPRPHQHPRP, the “shrunken log2 fold change” value was -0.308. As to RRIRKRPPRLPRPRPRPFETPRP, the “shrunken log2 fold change” value stood at 0.163.

Consider RRIRVRPPRLPRPRPRPIWQPRP, for which the “shrunken log2 fold change” value is -0.114.

Take RRIRYRPPRLPRPRPRPTFIPRP: the “shrunken log2 fold change” value is -0.0922.

Take RRIRRRPPRLPRPRPRPYYPPRP: the “shrunken log2 fold change” value is -0.468.

Consider RRIRPRPPRLPRPRPRPNTKPRP, for which the “shrunken log2 fold change” value is 0.0992.

Regarding RRIRERPPRLPRPRPRPPESPRP, the “shrunken log2 fold change” value amounted to 0.16. On to RRIRPRPPRLPRPRPRPWHKPRP, for which the “shrunken log2 fold change” value is -0.29. On to RRIRYRPPRLPRPRPRPLNPPRP, for which the “shrunken log2 fold change” value was 0.0535. In the case of RRIRDRPPRLPRPRPRPNCQPRP, the “shrunken log2 fold change” value turned out to be 0.156. In the case of RRIRLRPPRLPRPRPRPPWIPRP it was -0.35; in that of RRIRDRPPRLPRPRPRPQQLPRP, -0.0103. As to RRIRSRPPRLPRPRPRPYGLPRP, the “shrunken log2 fold change” value was -0.0943.

On to RRIRIRPPRLPRPRPRPSASPRP, for which the “shrunken log2 fold change” value came to 0.0632.

Turning to RRIRGRPPRLPRPRPRPASLPRP, the “shrunken log2 fold change” value is 0.472. Take RRIRIRPPRLPRPRPRPTGNPRP: the “shrunken log2 fold change” value is -0.626. As for RRIRSRPPRLPRPRPRPCNGPRP, the “shrunken log2 fold change” value is -0.0821.

In the case of RRIRERPPRLPRPRPRPIAGPRP, the “shrunken log2 fold change” value was determined as 0.0426.

As for RRIRWRPPRLPRPRPRPDTVPRP, the “shrunken log2 fold change” value is -0.0246. For RRIRCRPPRLPRPRPRPHDCPRP, the “shrunken log2 fold change” value is -0.0825. Turning to RRIRGRPPRLPRPRPRPMVNPRP, the “shrunken log2 fold change” value was 0.744. As to RRIRSRPPRLPRPRPRPYSHPRP, the “shrunken log2 fold change” value was -0.712. As to RRIRERPPRLPRPRPRPIHVPRP, the “shrunken log2 fold change” value was -0.274. Regarding RRIRERPPRLPRPRPRPVYHPRP, the “shrunken log2 fold change” value was -1.35. On to RRIRPRPPRLPRPRPRPPGRPRP, for which the “shrunken log2 fold change” value was determined as 0.567.
